Data set [1] has as its target OmpF (endogenous, co-extracted with FepA^BPA) (E. coli (endogenous in BW25113)) (UniProt P02931). Briefly: native MS; FepA^BPA preparations with co-extracted porins, 5 μM in 1% β-OG, 0.2 M ammonium acetate pH 6.9; make-up of the porin trimers.
Data set [2] deals with OmpF V177^BPA cross-linked to LPS (anion exchange peak 2) (E. coli) (UniProt P02931). As to the kind of experiment: native MS; purified OmpF samples, 5 μM in 1% β-OG, 0.2 M ammonium acetate pH 6.9; the OmpF trimer itself.
The target of data set [3] is OmpF V177^BPA cross-linked to phospholipid (anion exchange peak 1) (E. coli) (UniProt P02931). Described as above.
Data set [4] addresses OmpF, wild type, purified (E. coli) (UniProt P02931). The description is as above.
Data set [5] deals with the molecule itself. Briefly: native MS; FepA^BPA preparations with co-extracted porins, 5 μM in 1% β-OG, 0.2 M ammonium acetate pH 6.9; make-up of the porin trimers.
Data set [6] addresses T1, OmpF (endogenous, co-extracted with FepA^BPA) (E. coli (endogenous in BW25113), UniProt P02931 23-362).
T1 construct: OmpF, 16-stranded β barrel porin of E. coli; Found as homotrimers and as heterotrimers with OmpC; also called OmpF/C; porins; source: endogenous, outer membrane of E. coli BW25113 ΔfepA
T1 sequence (looked up): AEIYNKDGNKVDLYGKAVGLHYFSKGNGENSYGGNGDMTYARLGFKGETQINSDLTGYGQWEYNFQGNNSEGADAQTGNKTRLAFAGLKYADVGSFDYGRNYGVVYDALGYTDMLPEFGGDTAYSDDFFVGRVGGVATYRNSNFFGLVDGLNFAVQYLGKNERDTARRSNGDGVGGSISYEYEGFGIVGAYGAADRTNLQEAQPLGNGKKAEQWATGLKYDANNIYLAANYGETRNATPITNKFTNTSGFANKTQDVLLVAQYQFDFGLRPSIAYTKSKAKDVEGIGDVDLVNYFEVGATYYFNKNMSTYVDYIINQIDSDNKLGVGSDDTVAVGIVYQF
Described as above. Conditions: partners not purified.

On to “OmpF (endogenous, co-extracted with FepA^BPA) (from UniProt P02931 23-362) (natural protein)”, for which the stoichiometry N in data set [1] turned out to be 3.
As to “OmpF V177^BPA cross-linked to LPS (anion exchange peak 2) (from UniProt P02931 23-362) (natural protein)”, the stoichiometry N in data set [2] was 3.
Regarding “OmpF V177^BPA cross-linked to phospholipid (anion exchange peak 1) (from UniProt P02931 23-362) (natural protein)”, the stoichiometry N in data set [3] was determined as 3.
“OmpF, wild type, purified (from UniProt P02931 23-362) (natural protein)” displayed a stoichiometry N in data set [4] of 3.

B1: OmpC (endogenous, co-extracted with FepA^BPA) (natural protein, E. coli (endogenous in BW25113), UniProt P06996 22-367, looked up)
chain: AEVYNKDGNKLDLYGKVDGLHYFSDNKDVDGDQTYMRLGFKGETQVTDQLTGYGQWEYQIQGNSAENENNSWTRVAFAGLKFQDVGSFDYGRNYGVVYDVTSWTDVLPEFGGDTYGSDNFMQQRGNGFATYRNTDFFGLVDGLNFAVQYQGKNGNPSGEGFTSGVTNNGRDALRQNGDGVGGSITYDYEGFGIGGAISSSKRTDAQNTAAYIGNGDRAETYTGGLKYDANNIYLAAQYTQTYNATRVGSLGWANKAQNFEAVAQYQFDFGLRPSLAYLQSKGKNLGRGYDDEDILKYVDVGATYYFNKNMSTYVDYKINLLDDNQFTRDAGINTDNIVALGLVYQF
notes: OmpC, porin, structural homolog of OmpF, E. coli; Found as homotrimers and as heterotrimers with OmpF; also called OmpF/C; porins; source: endogenous, outer membrane of E. coli BW25113 ΔfepA
B1: the “stoichiometry N” value in data set [5] and in data set [6] was 3 in each case.

The values above are taken from paper PMC9629720, “Lipids mediate supramolecular outer membrane protein assembly in bacteria” (Science Advances, 2022).
